# T1: B2M 13-14x.285 (Artificial Sequence)
# T1 chain: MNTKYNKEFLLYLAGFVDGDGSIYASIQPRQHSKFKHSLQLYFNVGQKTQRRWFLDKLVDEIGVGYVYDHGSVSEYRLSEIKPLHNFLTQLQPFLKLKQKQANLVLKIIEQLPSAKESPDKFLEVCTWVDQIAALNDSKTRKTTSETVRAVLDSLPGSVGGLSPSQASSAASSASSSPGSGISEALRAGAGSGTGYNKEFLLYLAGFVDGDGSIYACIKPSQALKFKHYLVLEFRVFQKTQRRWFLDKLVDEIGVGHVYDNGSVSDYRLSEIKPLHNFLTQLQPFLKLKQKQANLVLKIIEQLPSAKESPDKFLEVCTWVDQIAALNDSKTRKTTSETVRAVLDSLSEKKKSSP
# T2: B2M 13-14x.317 (Artificial Sequence)
# T2 chain: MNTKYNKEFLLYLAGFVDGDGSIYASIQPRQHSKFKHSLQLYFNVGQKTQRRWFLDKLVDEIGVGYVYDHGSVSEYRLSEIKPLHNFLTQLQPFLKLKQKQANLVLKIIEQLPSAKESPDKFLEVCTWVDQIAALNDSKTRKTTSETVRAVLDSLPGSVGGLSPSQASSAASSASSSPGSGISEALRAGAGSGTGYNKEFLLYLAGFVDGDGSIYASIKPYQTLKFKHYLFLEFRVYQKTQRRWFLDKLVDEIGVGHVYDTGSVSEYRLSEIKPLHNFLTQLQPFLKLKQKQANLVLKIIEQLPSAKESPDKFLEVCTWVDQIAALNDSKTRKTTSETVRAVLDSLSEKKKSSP
# T3: B2M 13-14x.464 (Artificial Sequence)
# T3 chain: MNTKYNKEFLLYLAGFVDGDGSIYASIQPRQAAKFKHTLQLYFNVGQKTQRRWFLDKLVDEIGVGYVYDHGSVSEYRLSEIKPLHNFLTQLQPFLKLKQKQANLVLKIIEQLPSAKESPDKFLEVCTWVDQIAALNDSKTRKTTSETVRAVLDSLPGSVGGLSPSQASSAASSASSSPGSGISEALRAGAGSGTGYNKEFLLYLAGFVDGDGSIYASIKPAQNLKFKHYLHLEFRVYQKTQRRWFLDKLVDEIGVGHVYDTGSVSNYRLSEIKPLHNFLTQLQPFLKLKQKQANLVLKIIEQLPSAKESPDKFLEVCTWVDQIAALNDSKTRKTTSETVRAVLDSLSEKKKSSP
# T4: B2M 13-14x.325 (Artificial Sequence)
# T4 chain: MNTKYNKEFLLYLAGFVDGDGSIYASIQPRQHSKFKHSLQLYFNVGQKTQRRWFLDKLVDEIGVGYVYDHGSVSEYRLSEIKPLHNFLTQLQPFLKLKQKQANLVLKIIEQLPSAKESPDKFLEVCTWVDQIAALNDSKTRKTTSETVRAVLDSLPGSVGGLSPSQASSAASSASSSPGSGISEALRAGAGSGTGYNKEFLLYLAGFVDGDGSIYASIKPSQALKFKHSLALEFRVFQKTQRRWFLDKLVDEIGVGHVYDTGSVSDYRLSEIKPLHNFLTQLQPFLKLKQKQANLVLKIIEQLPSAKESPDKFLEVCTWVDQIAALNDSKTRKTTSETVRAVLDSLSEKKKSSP
# T5: B2M 13-14x.283 (Artificial Sequence)
# T5 chain: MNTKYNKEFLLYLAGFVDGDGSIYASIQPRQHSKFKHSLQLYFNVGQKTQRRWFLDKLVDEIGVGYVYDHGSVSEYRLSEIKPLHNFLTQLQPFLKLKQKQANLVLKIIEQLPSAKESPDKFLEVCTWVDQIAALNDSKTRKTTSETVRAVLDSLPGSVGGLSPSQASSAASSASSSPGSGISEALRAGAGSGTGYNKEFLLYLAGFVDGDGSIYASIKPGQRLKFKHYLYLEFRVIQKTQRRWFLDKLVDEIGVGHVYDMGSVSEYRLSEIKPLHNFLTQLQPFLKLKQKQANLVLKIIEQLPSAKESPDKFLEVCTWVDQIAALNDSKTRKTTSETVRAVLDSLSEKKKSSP
# T6: B2M 13-14x.365 (Artificial Sequence)
# T6 chain: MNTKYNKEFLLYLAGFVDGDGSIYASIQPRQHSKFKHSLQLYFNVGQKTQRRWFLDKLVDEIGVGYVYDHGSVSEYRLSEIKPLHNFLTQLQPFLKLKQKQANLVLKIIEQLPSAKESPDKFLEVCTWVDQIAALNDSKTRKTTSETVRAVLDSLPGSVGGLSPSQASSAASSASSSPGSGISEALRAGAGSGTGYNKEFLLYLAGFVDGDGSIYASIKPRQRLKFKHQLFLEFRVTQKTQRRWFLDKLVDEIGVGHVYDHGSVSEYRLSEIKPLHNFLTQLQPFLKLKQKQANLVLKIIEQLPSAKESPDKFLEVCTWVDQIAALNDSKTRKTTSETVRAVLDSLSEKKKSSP
# T7: B2M 13-14x.465 (Artificial Sequence)
# T7 chain: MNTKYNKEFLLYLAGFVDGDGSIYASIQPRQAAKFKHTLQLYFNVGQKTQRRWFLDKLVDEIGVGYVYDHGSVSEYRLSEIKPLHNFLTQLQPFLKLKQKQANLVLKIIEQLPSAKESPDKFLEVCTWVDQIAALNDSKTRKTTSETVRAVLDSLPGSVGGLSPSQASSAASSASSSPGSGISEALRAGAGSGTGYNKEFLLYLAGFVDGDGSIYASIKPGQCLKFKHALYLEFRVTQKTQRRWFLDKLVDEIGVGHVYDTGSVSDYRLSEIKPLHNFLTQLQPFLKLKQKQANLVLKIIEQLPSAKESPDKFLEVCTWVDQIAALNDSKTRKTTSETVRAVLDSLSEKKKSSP
# B1: B2M 13-14 recognition sequence (dsDNA)
# DNA 1: CTATCTCTTGTACTACACTGAA
# DNA 2: TTCAGTGTAGTACAAGAGATAG
# Assays:
# Assay in all cases: cell_activity; human T cells, 1 ug mRNA, day 3
# Settings in all cases: tags: N-terminal SV40 NLS
# B2M 13-14x.285 = molecular target: T1, B2M 13-14x.285
# Protocol: (§1) Donor human T cells were stimulated with anti-CD3 and anti-CD28 antibodies for 3 days, then electroporated with mRNA encoding a given B2M 13-14 meganuclease (1 μg) using the Amaxa 4D-Nucleofector (Lonza) according to the manufacturer's instructions. To look for the loss of B2M surface expression, cells were stained with an antibody recognizing β-2 microglobulin (BD Biosciences) as well as an antibody recognizing CD3 (BioLegend), a marker of T cells.
# B2M 13-14x.317 = molecular target: T2, B2M 13-14x.317
# Protocol: as §1
# B2M 13-14x.464 = molecular target: T3, B2M 13-14x.464
# Protocol: as §1
# B2M 13-14x.325 = molecular target: T4, B2M 13-14x.325
# Protocol: as §1
# B2M 13-14x.283 = molecular target: T5, B2M 13-14x.283
# Protocol: as §1
# B2M 13-14x.365 = molecular target: T6, B2M 13-14x.365
# Protocol: as §1
# B2M 13-14x.465 = molecular target: T7, B2M 13-14x.465
# Protocol: as §1
binder,measurement,setting,value
B1,activity,B2M 13-14x.285,22 % B2M-negative
same,activity,B2M 13-14x.317,3.91 % B2M-negative
same,activity,B2M 13-14x.464,8.24 % B2M-negative
same,activity,B2M 13-14x.325,14.4 % B2M-negative
same,activity,B2M 13-14x.283,49.3 % B2M-negative
same,activity,B2M 13-14x.365,27.4 % B2M-negative
same,activity,B2M 13-14x.465,30.8 % B2M-negative

# Reference: patent US20210032664, “ENGINEERED MEGANUCLEASES WITH RECOGNITION SEQUENCES FOUND IN THE HUMAN BETA-2 MICROGLOBULIN GENE” (Precision Biosciences, Inc., published 2021)
